Test results from patent publication US20040091475A1 (Chugai, published 2004).
Blank lines part the entries; values can stand above or below the molecule they belong to.

Tests used:
[1] = target: human TPO receptor (MPL) expressed on Ba/F3 cells (human) (UniProt P40238); experiment: cell-based or functional assay
[2] = target: T1, human Integrin Associated Protein (IAP) expressed on mouse leukemia cell line L1210 (human, UniProt Q08722 19-323); experiment: flow cytometry on L1210 cells expressing human IAP; COS7 culture supernatant; mouse anti-FLAG antibody, then FITC-labeled anti-mouse IgG antibody
T1 construct: whole, on cells; also called human IAP; hIAP/L1210
Protocol: Flow cytometry was performed using the culture supernatants of COS7 cells prepared in Example 6.3 (1) to measure the binding of the MABL2-scFVs and sc(Fv)₂ to human Integrin Associated Protein (IAP) antigen. The culture supernatants to be tested or a culture supernatant of COS7 cells as a control was added to 2×10⁵ cells of the mouse leukemia cell line L1210 expressing human IAP. After incubating on ice and washing, 10 μg/mL of the mouse anti-FLAG antibody (SIGMA) was added and then the cells were incubated and washed. Then, the FITC labeled anti-mouse IgG antibody (BECTON DICKINSON) was added thereto and the cells were incubated and washed again. The fluorescence intensity was measured using the FACScan apparatus (BECTON DICKINSON).

[3] = target: T1, human Integrin Associated Protein (IAP) …; experiment: flow cytometry on L1210 cells expressing human IAP; COS7 culture supernatant; FITC-labeled anti-human IgG antibody
[4] = target: T1, human Integrin Associated Protein (IAP) …; experiment: as above; remark: listed apart in the source
[5] = target: T1, human Integrin Associated Protein (IAP) …; experiment: flow cytometry, 10 µg/ml antibody on L1210 cells expressing human IAP (panel B), pCOS1/L1210 cells as control (panel A); FITC-labeled anti-mouse IgG antibody
Protocol: Flow cytometry was performed using the purified dimer of MABL2-scFv <HL-5> and the purified sc(Fv)₂ in order to evaluate the binding to human Integrin Associated Protein (IAP) antigen. 10 μg/ml of the purified dimer of MABL2-scFv <HL-5>, the purified sc(Fv)₂, the antibody MABL-2 as a positive control or a mouse IgG (Zymed) as a negative control was added to 2×10⁵ cells of the mouse leukemia cell line L1210 expressing human IAP (hIAP/L1210) or the cell line L1210 transformed with pCOS1 (pCOS1/L1210) as a control. After incubating on ice and washing, 10 μg/mL of the mouse anti-FLAG antibody (SIGMA) was added and then the cells were incubated and washed. FITC labeled anti-mouse IgG antibody (BECTON DICKINSON) was added thereto and the cells were incubated and washed again. Then the fluorescence intensity was measured using the FACScan apparatus (BECTON DICKINSON).

[6] = target: T2, human TPO receptor (MPL) expressed on Ba/F3 cells (human, UniProt P40238 26-635); experiment: cell-based or functional assay
T2 sequence (looked up): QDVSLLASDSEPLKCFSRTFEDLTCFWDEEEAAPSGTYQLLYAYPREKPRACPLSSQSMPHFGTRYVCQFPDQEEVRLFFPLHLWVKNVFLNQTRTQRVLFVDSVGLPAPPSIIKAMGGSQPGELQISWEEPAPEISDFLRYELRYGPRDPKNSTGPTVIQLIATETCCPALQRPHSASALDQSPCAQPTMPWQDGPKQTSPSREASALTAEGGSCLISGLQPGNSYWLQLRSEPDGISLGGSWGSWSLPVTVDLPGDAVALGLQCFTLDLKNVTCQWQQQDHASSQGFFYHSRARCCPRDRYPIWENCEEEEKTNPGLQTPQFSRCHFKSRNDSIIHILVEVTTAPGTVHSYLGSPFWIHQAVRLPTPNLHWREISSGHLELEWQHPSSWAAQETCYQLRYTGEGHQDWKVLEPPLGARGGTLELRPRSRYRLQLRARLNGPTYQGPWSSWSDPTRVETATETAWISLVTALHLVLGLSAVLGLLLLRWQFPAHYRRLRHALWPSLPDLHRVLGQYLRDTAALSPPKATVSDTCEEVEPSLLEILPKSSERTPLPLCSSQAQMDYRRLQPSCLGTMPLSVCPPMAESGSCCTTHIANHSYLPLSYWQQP

T1 sequence (Q08722 19-323): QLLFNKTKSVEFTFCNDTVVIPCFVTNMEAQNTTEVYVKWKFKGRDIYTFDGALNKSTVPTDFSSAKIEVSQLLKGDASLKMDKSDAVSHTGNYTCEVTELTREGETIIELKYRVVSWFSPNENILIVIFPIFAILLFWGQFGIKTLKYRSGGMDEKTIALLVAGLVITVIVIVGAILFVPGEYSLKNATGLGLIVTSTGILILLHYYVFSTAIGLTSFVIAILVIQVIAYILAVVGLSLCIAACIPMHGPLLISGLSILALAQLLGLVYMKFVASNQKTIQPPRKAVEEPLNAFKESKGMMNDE

B1: antibody MABL-2 sc(Fv)2 (scFv)
chain: QVQLQQSGPELVKPGASVKMSCKASGYTFANHVIHWVKQKPGQGLEWIGYIYPYNDGTKYNEKFKDKATLTSDKSSTTAYMDLSSLASEDSAVYYCARGGYYTYDDWGQGTTLTVSSGGGGSGGGGSGGGGSDVVMTQSPLSLPVSLGDQASISCRSSQSLVHSNGKTYLHWYLQKPGQSPKLLIYKVSNRFSGVPDRFSGSGSVTDFTLMISRVEAEDLGVYFCSQSTHVPYTFGGGTKLEIKGGGGSGGGGSGGGGSVDSQVQLQQSGPELVKPGASVKMSCKASGYTFANHVIHWVKQKPGQGLEWIGYIYPYNDGTKYNEKFKDKATLTSDKSSTTAYMDLSSLASEDSAVYYCARGGYYTYDDWGQGTTLTVSSGGGGSGGGGSGGGGSDVVMTQSPLSLPVSLGDQASISCRSSQSLVHSNGKTYLHWYLQKPGQSPKLLIYKVSNRFSGVPDRFSGSGSVTDFTLMISRVEAEDLGVYFCSQSTHVPYTFGGGTKLEIKDYKDDDDK
notes: Single chain polypeptide with two H chain V regions and two L chain V regions of MABL-2, FLAG at the C-terminus; eluted at the position of the monomer; also called pCHOM2(Fv)2
binding result [2]: binds

B2: chimera MABL-1 antibody (antibody, V domains shown)
VH: QVQLQQSGPDLVKPGASVKMSCKASGYTFVNHVMHWVKQKPGQGLEWIGYIYPYNDGTKYNEKFKGKATLTSEKSSSAAYMELSSLASEDSAVYYCARGGYYSYDDWGQGTTLTVSS
VL: DVVMTQTPLSLPVSLGDQASISCRSSQSLLHSKGNTYLQWYLQKPGQSPKLLIYKVSNRFSGVPDRFSGSGSGTDFTLKISRVEAEDLGVYFCSQSTHVPYTSGGGTKLEIK
notes: Mouse MABL-1 V regions cloned into HEF-gamma and HEF-kappa expression vectors (human constant regions); tested as COS7 culture supernatant
binding result [3]: binds

B3: chimera MABL-2 antibody (antibody, V domains shown)
VH: QVQLQQSGPELVKPGASVKMSCKASGYTFANHVIHWVKQKPGQGLEWIGYIYPYNDGTKYNEKFKDKATLTSDKSSTTAYMDLSSLASEDSAVYYCARGGYYTYDDWGQGTTLTVSS
VL: DVVMTQSPLSLPVSLGDQASISCRSSQSLVHSNGKTYLHWYLQKPGQSPKLLIYKVSNRFSGVPDRFSGSGSVTDFTLMISRVEAEDLGVYFCSQSTHVPYTFGGGTKLEIK
notes: Mouse MABL-2 V regions cloned into HEF-gamma and HEF-kappa expression vectors (human constant regions); tested as COS7 culture supernatant
binding result [4]: binds

B8: antibody 12B5 (IgG) (antibody, V domains shown)
VH: QVQLVQSGGGLVRPGGSLSLSCAVSGITLRTYGMHWVRQAPGKGLEWVAGISFDGRSEYYADSVQGRFTISRDSSKNTLYLQMNSLRAEDTAVYYCARGAHYGFDIWGQGTMVTVSS
VL: DIQMTQSPSTLSASIGDRVTITCRASEGIYHWLAWYQQKPGKAPKLLIYKASSLASGAPSRFSGSGSGTDFTLTISSLQPDDFATYYCQQYSNYPLTFGGGTKLEIK
TPO-like agonist activity: proliferation of Ba/F3 cells expressing human TPO receptor (BaF/mpl), WST-8; ED50 [6]: 29 nM

B9: 12B5Fab fragment (Fab, V domains shown)
VH: QVQLVQSGGGLVRPGGSLSLSCAVSGITLRTYGMHWVRQAPGKGLEWVAGISFDGRSEYYADSVQGRFTISRDSSKNTLYLQMNSLRAEDTAVYYCARGAHYGFDIWGQGTMVTVSS
VL: DIQMTQSPSTLSASIGDRVTITCRASEGIYHWLAWYQQKPGKAPKLLIYKASSLASGAPSRFSGSGSGTDFTLTISSLQPDDFATYYCQQYSNYPLTFGGGTKLEIK
TPO-like agonist activity: proliferation of Ba/F3 cells expressing human TPO receptor (BaF/mpl), WST-8; ED50 [6]: 34700 nM

Results, then the molecule that gave them:

proliferation of Ba/F3 cells expressing human TPO receptor (BaF/mpl), WST-8; ED50 [1]: 0.027 nM
Molecule: human TPO (R&D Systems) (from UniProt P40225 22-353) (ligand)

binding result [5]: binds
B4: mouse monoclonal antibody MABL-2 (antibody, V domains shown)
VH: QVQLQQSGPELVKPGASVKMSCKASGYTFANHVIHWVKQKPGQGLEWIGYIYPYNDGTKYNEKFKDKATLTSDKSSTTAYMDLSSLASEDSAVYYCARGGYYTYDDWGQGTTLTVSS
VL: DVVMTQSPLSLPVSLGDQASISCRSSQSLVHSNGKTYLHWYLQKPGQSPKLLIYKVSNRFSGVPDRFSGSGSVTDFTLMISRVEAEDLGVYFCSQSTHVPYTFGGGTKLEIK
notes: Whole mouse antibody from hybridoma MABL-2 (H chain amplified with the MHC-gamma2a primer, kappa L chain); also called MABL-2 (intact)

TPO-like agonist activity: proliferation of Ba/F3 cells expressing human TPO receptor (BaF/mpl), WST-8; ED50 [6]: 75 nM
B5: reconstructed 12B5 single chain Fv (sc12B5), culture supernatant of COS-7 cells (scFv)
scFv: QVQLVQSGGGLVRPGGSLSLSCAVSGITLRTYGMHWVRQAPGKGLEWVAGISFDGRSEYYADSVQGRFTISRDSSKNTLYLQMNSLRAEDTAVYYCARGAHYGFDIWGQGTMVTVSSGGGGSGGGGSGGGGSDIQMTQSPSTLSASIGDRVTITCRASEGIYHWLAWYQQKPGKAPKLLIYKASSLASGAPSRFSGSGSGTDFTLTISSLQPDDFATYYCQQYSNYPLTFGGGTKLEIKDYKDDDDK

TPO-like agonist activity: proliferation of Ba/F3 cells expressing human TPO receptor (BaF/mpl), WST-8; ED50 [6]: 4440 nM
B6: sc12B5 monomer (scFv)
scFv: QVQLVQSGGGLVRPGGSLSLSCAVSGITLRTYGMHWVRQAPGKGLEWVAGISFDGRSEYYADSVQGRFTISRDSSKNTLYLQMNSLRAEDTAVYYCARGAHYGFDIWGQGTMVTVSSGGGGSGGGGSGGGGSDIQMTQSPSTLSASIGDRVTITCRASEGIYHWLAWYQQKPGKAPKLLIYKASSLASGAPSRFSGSGSGTDFTLTISSLQPDDFATYYCQQYSNYPLTFGGGTKLEIKDYKDDDDK

TPO-like agonist activity: fold against monovalent sc12B5 [6]: ~400 fold
TPO-like agonist activity: proliferation of Ba/F3 cells expressing human TPO receptor (BaF/mpl), WST-8; ED50 [6]: 10.1 nM
B7: sc12B5 dimer (scFv)
scFv: QVQLVQSGGGLVRPGGSLSLSCAVSGITLRTYGMHWVRQAPGKGLEWVAGISFDGRSEYYADSVQGRFTISRDSSKNTLYLQMNSLRAEDTAVYYCARGAHYGFDIWGQGTMVTVSSGGGGSGGGGSGGGGSDIQMTQSPSTLSASIGDRVTITCRASEGIYHWLAWYQQKPGKAPKLLIYKASSLASGAPSRFSGSGSGTDFTLTISSLQPDDFATYYCQQYSNYPLTFGGGTKLEIKDYKDDDDK
